This assay concerns the target 광견병 바이러스 CVS-11의 야생형 G 단백질 (rabies virus CVS-11) (UniProt O92284). Kind of assay: cell-based or functional assay.
Sequence of UniProt O92284 (O92284 20-524 limits assumed): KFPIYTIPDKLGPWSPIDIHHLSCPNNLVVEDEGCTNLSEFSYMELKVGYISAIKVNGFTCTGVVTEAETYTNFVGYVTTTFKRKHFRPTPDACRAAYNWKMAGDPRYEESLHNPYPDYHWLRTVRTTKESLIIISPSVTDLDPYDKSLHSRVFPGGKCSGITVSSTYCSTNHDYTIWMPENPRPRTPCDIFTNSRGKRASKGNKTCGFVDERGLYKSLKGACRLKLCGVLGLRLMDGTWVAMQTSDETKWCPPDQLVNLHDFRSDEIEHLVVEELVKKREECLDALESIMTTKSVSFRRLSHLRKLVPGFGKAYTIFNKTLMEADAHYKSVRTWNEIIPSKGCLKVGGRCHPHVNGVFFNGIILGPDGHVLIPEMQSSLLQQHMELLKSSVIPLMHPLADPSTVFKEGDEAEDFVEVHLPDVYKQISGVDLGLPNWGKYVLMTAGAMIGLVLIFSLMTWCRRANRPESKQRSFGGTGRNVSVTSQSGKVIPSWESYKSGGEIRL

B1: 이 건 항체 2 (antibody, V domains shown)
VH: EVQLVESGAEVKKPGASVKVSCKASGYTFTSYDVSWVRQAPGQGLEWMGWISAYRGNTKYAQKFQGRVTMTTDTSTSTAYMELRSLRSDDTAVYYCARAKSHPYYDFWSGYYVPGAFDIWGQGTMVTVSS
VL: ELQMTQSPSSLSASVGDRVTITCQASQDISNYLTWYQQKPGKAPKLLIYDASNLETGVPSRFSGSGSGTDFTFTISSLQPEDIATYYCQQYDNLPPTFGGGTKVEIKR
B1: the RFFIT IU/mL, CVS-11 is 1.59 IU/mL; the RFFIT IU/mg, CVS-11 (중화능력) is 7940 IU/mg; the RFFIT Titer, CVS-11 worked out at 270.
